Where two headings read alike, the source gives them in different places.
What was measured:
Assay in all cases: competition
Fis [1] = biological target: T1, Fis (Escherichia coli, UniProt P0A6R3 1-98)
Fis [2] = biological target: T1, Fis; remark: listed apart in the source
Fis [3] = biological target: T1, Fis; remark: listed apart in the source

T1 sequence (P0A6R3 whole entry): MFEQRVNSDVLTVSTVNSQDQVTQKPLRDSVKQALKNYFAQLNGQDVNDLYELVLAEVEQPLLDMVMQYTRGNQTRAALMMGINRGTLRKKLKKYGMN

B1: F1 (dsDNA)
DNA 1: AAATTTGTTTGAATTTTGAGCAAATTT
DNA 2: AAATTTGCTCAAAATTCAAACAAATTT
binding result (Fis [1]): binds

B2: F28 (dsDNA)
DNA 1: AAATTTGTTTGAGCGTTGAGCAAATTT
DNA 2: AAATTTGCTCAACGCTCAAACAAATTT
binding result (Fis [2]): binds

B3: F29 (dsDNA)
DNA 1: AAATTTGTTTGGGCGCTGAGCAAATTT
DNA 2: AAATTTGCTCAGCGCCCAAACAAATTT
binding result (Fis [3]): binds
